# From patent US20240409663A1 (CONCEPT TO MEDICINE BIOTECH, published 2024)
# Assays:
# [1] = target: T1, human GPC3-his tag protein (human, UniProt P51654 25-559, limits assumed); assay: SPR Biacore 8K, mAb captured, affinity ranking
# T1 construct: recombinant soluble antigen used as analyte in all Biacore runs; also called recombinant GPC3 protein; rhGPC3-His; not shown: His tag
# Procedure: To evaluate antigen binding activity, the chimeric antibody's affinity was measured by Biacore 8K. A serial dilution of human GPC3-his tag protein was injected over captured chimeric antibody 52H5D3B8-6 #-VH+VL for 3 mins at a flow rate of 30 μl/min. The antigen was allowed to dissociate for 720 s. Among the multi detection doses, two concentrations with most close affinity to the chimeric antibody's affinity were chosen for the 16 humanized antibodies' affinity detection.
# human GPC3 on cells [2] = target: T2, human GPC3 on cells (human, UniProt P51654 25-554); assay: FACS, HEPG2 cells
# T2 construct: whole, on cells; over-expressed on CHOK1 cells or endogenous on HEPG2, Hep3B and Huh-7 hepatocellular carcinoma cells; the cell line is named under assay; also called GPC3-CHOK1 cells; human GPC3 over-expressed CHOK1 cells
# Procedure: (§1) To evaluate the antigen binding property, the humanized antibodies were analyzed for their binding to human GPC3 over-expressed CHOK1 cells, HEPG2 cells, Hep3B cells and Huh-7 cells by FACS. Briefly, GPC3-CHOK1 cells, HEPG2 cells, Hep3B cells and Huh-7 cells were firstly incubated with Fc blocking reagent at 4° C. for 15 mins. Cells were washed by FACS buffer and divided to each well with 4-fold serially diluted humanized antibodies starting at 10 μg/mL at 4° C. for 60 mins. Cells were washed by FACS buffer and fixed with 2% PFA at RT for 15 mins. […] The 16 humanized antibodies were separated into two plates.
# human GPC3 on cells [3] = target: T2, human GPC3 on cells; assay: FACS, GPC3-CHOK1 cells
# Procedure: as §1
# human GPC3 on cells [4] = target: T2, human GPC3 on cells; assay: FACS, Huh-7 cells
# Procedure: as §1
# human GPC3 on cells [5] = target: T2, human GPC3 on cells; assay: FACS, Hep3B cells
# Procedure: as §1
# human GPC3 on cells [6] = target: T2, human GPC3 on cells; assay: FACS, Huh-7 cells; remark: listed apart in the source
# Procedure: as §1, with “CHOK1” for “CHOK1 cells, HEPG2 cells, Hep3B”, “GPC3-CHOK1” for “GPC3-CHOK1 cells, HEPG2 cells, Hep3B”, “As different plates might affect the EC50 of 52H5D3B8-VH+VL, the 12” for “The 16”
# human GPC3 on cells [7] = target: T2, human GPC3 on cells; assay: FACS, GPC3-CHOK1 cells; remark: listed apart in the source
# Procedure: as §1, with “CHOK1” for “CHOK1 cells, HEPG2 cells, Hep3B”, “GPC3-CHOK1” for “GPC3-CHOK1 cells, HEPG2 cells, Hep3B”, “As different plates might affect the EC50 of 52H5D3B8-VH+VL, the 12” for “The 16”
# [8] = target: T1, human GPC3-his tag protein; assay: SPR Biacore 8K, mAb captured, affinity ranking; remark: listed apart in the source
# Procedure: To evaluate antigen binding activity, the chimeric antibody's affinity was measured by Biacore 8K. Two concentrations with most close affinity to the chimeric antibody's affinity were chosen for the 12 humanized antibodies' affinity detection. Human GPC3-his tag protein was injected over captured antibody for 3 mins at a flow rate of 30 μl/min. The antigen was allowed to dissociate for 720 s.
# [9] = target: T1, human GPC3-his tag protein; assay: SPR Biacore, mAb captured on CM5, GPC3-his dilution series (full kinetics)
# Procedure: The binding of the humanized antibodies to recombinant GPC3 protein (human GPC3-his tag) was tested by Biacore using a capture method. 52H5D3B8-6 #-V+VL, 52H5D3B8-6 #-VH1+VL1, 52H5D3B8-6 #-VH1+VL3, 52H5D3B8-6 #-V1+VL4, 52H5D3B8-6 #-VH2+VL4, 52H5D3B8-6 #-VH3+VL1, 52H5D3B8-6 #-VH3+VL3 mAbs were captured using CM5 sensor chip. A serial dilution of human GPC3-his tag protein was injected over captured antibody for 2 mins at a flow rate of […]. The antigen was allowed to dissociate for 360 s. All the experiments were carried out on a Biacore T200.
Binder,Kd [1] [nM],koff [1] [s⁻¹],kon [1] [M⁻¹ s⁻¹],EC50 (human GPC3 on cells [2]) [µg/mL],EC50 (human GPC3 on cells [3]) [µg/mL],EC50 (human GPC3 on cells [4]) [µg/mL],EC50 (human GPC3 on cells [5]) [µg/mL],EC50 (human GPC3 on cells [6]) [µg/mL],EC50 (human GPC3 on cells [7]) [µg/mL],Kd [8] [nM],koff [8] [s⁻¹],kon [8] [M⁻¹ s⁻¹],Kd [9] [nM],koff [9] [s⁻¹],kon [9] [M⁻¹ s⁻¹]
"52H5D3B8-6#-VH2+VL1 (antibody, V domains shown, humanized) VH: QVQLVQSGAEVKKPGASVKVSCKASGYTFTDYEMHWVRQAPGQGLEWIGAIHPGSGGTAYNQKFKGRVTMTADTSTSTVYMELSSLRSEDTAVYYCTRYYSYAYWGQGTLVTVSS VL: DIVMTQTPLSLSVTPGQPASISCRSSQSLVHSNGNTYLQWYLQKPGQSPQLLIYKVSNRFSGVPDRFSGSGSGTDFTLKISRVEAEDVGVYYCFQSIHVPYTFGGGTKLEIK",1.15,0.000742,646000,0.0479,0.0384,0.0427,0.0824,,,,,,,,
"Hu 52H5D3B8-4 (antibody, V domains shown, humanized 52H5D3B8; also called 52H5D3B8 VH1 + VL1) VH: EVQLVQSGAEVKKPGASVKVSCKASGYTFTDYEMHWVRQAPGQGLEWMGAIHPGSGGTAYNQKFKGRVTMTRDTSISTAYMELSRLRSDDTAVYYCTRFYSYAYWGQGTLVTVSS VL: DVVMTQTPLSLSVTPGQPASISCRSSQSLVHSNGNTYLQWYLQKPGQSPQLLIYKVSNRFSGVPDRFSGSGSGTDFTLKISRVEAEDVGVYFCSQSIHVPYTFGGGTKVEIK",,,,,,,,0.0196,0.0324,4.6,0.00164,357000,,,
"52H5D3B8-6#-VH3+VL2 (antibody, V domains shown, humanized) VH: QVQLVQSGAEVKKPGASVKVSCKALGYTFTDYEMHWVKQAPGQGLEWIGAIHPGSGGTAYNQKFKGRVTLTADTSTSTVYMELSSLRSEDTAVYYCTRYYSYAYWGQGTLVTVSS VL: DIVMTQTPLSLSVTPGQPASISCRSSQSLVHSNGNTYLQWYLQKPGQSPQLLIYKVSNRFSGVPDRFSGSGSGTDFTLKISRVEAEDVGVYFCFQSIHVPYTFGGGTKLEIK",0.883,0.000587,664000,0.0444,0.0429,0.0411,0.0786,,,,,,,,
"52H5D3B8-6#-VH2+VL2 (antibody, V domains shown, humanized) VH: QVQLVQSGAEVKKPGASVKVSCKASGYTFTDYEMHWVRQAPGQGLEWIGAIHPGSGGTAYNQKFKGRVTMTADTSTSTVYMELSSLRSEDTAVYYCTRYYSYAYWGQGTLVTVSS VL: DIVMTQTPLSLSVTPGQPASISCRSSQSLVHSNGNTYLQWYLQKPGQSPQLLIYKVSNRFSGVPDRFSGSGSGTDFTLKISRVEAEDVGVYFCFQSIHVPYTFGGGTKLEIK",1.15,0.000749,651000,0.0481,0.043,0.0434,0.0846,,,,,,,,
"52H5D3B8-6#-VH1+VL3 (antibody, V domains shown, humanized) VH: QVQLVQSGAEVKKPGASVKVSCKASGYTFTDYEMHWVRQAPGQGLEWMGAIHPGSGGTAYNQKFKGRVTMTRDTSTSTVYMELSSLRSEDTAVYYCARYYSYAYWGQGTLVTVSS VL: DIVMTQTPLSLSVTPGQPASISCRSSQSLVHSNGNTYLQWYLQKPGQSPKLLIYKVSNRFSGVPDRFSGSGSGTDFTLKISRVEAEDVGVYYCFQSIHVPYTFGGGTKLEIK",1.74,0.000975,561000,0.0387,0.0341,0.0265,0.0529,,,,,,1.76,0.000872,494000
"52H5D3B8-6#-VH3+VL1 (antibody, V domains shown, humanized) VH: QVQLVQSGAEVKKPGASVKVSCKALGYTFTDYEMHWVKQAPGQGLEWIGAIHPGSGGTAYNQKFKGRVTLTADTSTSTVYMELSSLRSEDTAVYYCTRYYSYAYWGQGTLVTVSS VL: DIVMTQTPLSLSVTPGQPASISCRSSQSLVHSNGNTYLQWYLQKPGQSPQLLIYKVSNRFSGVPDRFSGSGSGTDFTLKISRVEAEDVGVYYCFQSIHVPYTFGGGTKLEIK",0.838,0.000578,689000,0.0471,0.0373,0.0413,0.0738,,,,,,1,0.000579,579000
"52H5D3B8-6#-VH2+VL4 (antibody, V domains shown, humanized) VH: QVQLVQSGAEVKKPGASVKVSCKASGYTFTDYEMHWVRQAPGQGLEWIGAIHPGSGGTAYNQKFKGRVTMTADTSTSTVYMELSSLRSEDTAVYYCTRYYSYAYWGQGTLVTVSS VL: DIVMTQTPLSLSVTPGQPASISCRSSQSLVHSNGNTYLQWYLQKPGQSPKLLIYKVSNRFSGVPDRFSGSGSGTDFTLKISRVEAEDVGVYFCFQSIHVPYTFGGGTKLEIK",0.994,0.000645,648000,0.0438,0.041,0.0381,0.0632,,,,,,1.12,0.000669,599000

# The next lines start with the values.
Kd [1] [nM],koff [1] [s⁻¹],kon [1] [M⁻¹ s⁻¹],EC50 (human GPC3 on cells [2]) [µg/mL],EC50 (human GPC3 on cells [3]) [µg/mL],EC50 (human GPC3 on cells [4]) [µg/mL],EC50 (human GPC3 on cells [5]) [µg/mL],EC50 (human GPC3 on cells [6]) [µg/mL],EC50 (human GPC3 on cells [7]) [µg/mL],Kd [8] [nM],koff [8] [s⁻¹],kon [8] [M⁻¹ s⁻¹],Kd [9] [nM],koff [9] [s⁻¹],kon [9] [M⁻¹ s⁻¹],Binder
2,0.00113,564000,0.043,0.0388,0.0326,0.0615,,,,,,,,,"52H5D3B8-6#-VH1+VL2 (antibody, V domains shown, humanized) VH: QVQLVQSGAEVKKPGASVKVSCKASGYTFTDYEMHWVRQAPGQGLEWMGAIHPGSGGTAYNQKFKGRVTMTRDTSTSTVYMELSSLRSEDTAVYYCARYYSYAYWGQGTLVTVSS VL: DIVMTQTPLSLSVTPGQPASISCRSSQSLVHSNGNTYLQWYLQKPGQSPQLLIYKVSNRFSGVPDRFSGSGSGTDFTLKISRVEAEDVGVYFCFQSIHVPYTFGGGTKLEIK"
,,,,,,,0.0213,0.0387,4.34,0.00176,405000,,,,"Hu 52H5D3B8-3 (antibody, V domains shown, humanized 52H5D3B8; also called 52H5D3B8 VH1 + VL0) VH: EVQLVQSGAEVKKPGASVKVSCKASGYTFTDYEMHWVRQAPGQGLEWMGAIHPGSGGTAYNQKFKGRVTMTRDTSISTAYMELSRLRSDDTAVYYCTRFYSYAYWGQGTLVTVSS VL: DVVMTQTPLSLSVTPGQPASISCRSSQSLVHSNGNTYLQWYLQKPGQSPQLLIYKVSNRFSGVPDRFSGSGSGTDFTLKISRVEAEDVGVYYCSQSIHVPYTFGGGTKVEIK"
,,,,,,,0.0243,0.0404,6.33,0.00161,255000,,,,"Hu 52H5D3B8-1 (antibody, V domains shown, humanized 52H5D3B8; also called 52H5D3B8 VH0 + VL0) VH: EVQLVQSGAEVKKPGASVKVSCKASGYTFTDYEMHWVRQAPGQGLEWMGAIHPGSGGTAYNQKFKGRVTMTRDTSISTAYMELSRLRSDDTAVYYCARFYSYAYWGQGTLVTVSS VL: DVVMTQTPLSLSVTPGQPASISCRSSQSLVHSNGNTYLQWYLQKPGQSPQLLIYKVSNRFSGVPDRFSGSGSGTDFTLKISRVEAEDVGVYYCSQSIHVPYTFGGGTKVEIK"
1.74,0.000947,546000,0.0391,0.0308,0.0268,0.0545,,,,,,1.85,0.000984,532000,"52H5D3B8-6#-VH1+VL4 (antibody, V domains shown, humanized) VH: QVQLVQSGAEVKKPGASVKVSCKASGYTFTDYEMHWVRQAPGQGLEWMGAIHPGSGGTAYNQKFKGRVTMTRDTSTSTVYMELSSLRSEDTAVYYCARYYSYAYWGQGTLVTVSS VL: DIVMTQTPLSLSVTPGQPASISCRSSQSLVHSNGNTYLQWYLQKPGQSPKLLIYKVSNRFSGVPDRFSGSGSGTDFTLKISRVEAEDVGVYFCFQSIHVPYTFGGGTKLEIK"
